Results as given in patent publication US20190328910A1 (University of California, published 2019).
*: point of attachment. Benzoyl(4-F) = O=C(c1ccc(F)cc1)*

B1: Me-…(FB) (peptide)
peptide: XGDLTYLKX
modifications: N-terminal methyl (Me); fluorobenzoyl (FB) on the side chain of the C-terminal lysine
notes: N-methylated variant of ST1-62
B2: FB-…(FB) (peptide)
peptide: XGDLTYLKX
modifications: N-terminal fluorobenzoyl (FB); fluorobenzoyl (FB) on the side chain of the C-terminal lysine
notes: N-fluorobenzoylated variant of ST1-62
B3: ST1-61, …(FB) (peptide)
peptide: H-RGDLRELAK(Benzoyl(4-F))-NH2
SMILES: CC(C)C[C@H](NC(=O)[C@H](CCC(=O)O)NC(=O)[C@H](CCCNC(=N)N)NC(=O)[C@H](CC(C)C)NC(=O)[C@H](CC(=O)O)NC(=O)CNC(=O)[C@@H](N)CCCNC(=N)N)C(=O)N[C@@H](C)C(=O)N[C@@H](CCCCNC(=O)c1ccc(F)cc1)C(N)=O
notes: free N-terminus; also called Peptide 5
B4: ST1-59, …(FB) (peptide)
peptide: H-RGDLMKLAK(Benzoyl(4-F))-NH2
SMILES: CSCC[C@H](NC(=O)[C@H](CC(C)C)NC(=O)[C@H](CC(=O)O)NC(=O)CNC(=O)[C@@H](N)CCCNC(=N)N)C(=O)N[C@@H](CCCCN)C(=O)N[C@@H](CC(C)C)C(=O)N[C@@H](C)C(=O)N[C@@H](CCCCNC(=O)c1ccc(F)cc1)C(N)=O
notes: free N-terminus; also called Peptide 2
B5: FB-…(Ac) (peptide)
peptide: XGDLTYLKX
modifications: N-terminal fluorobenzoyl (FB); acetyl (Ac) on the side chain of the C-terminal lysine
notes: as for B2
B6: Ac-…(FB) (peptide)
peptide: XGDLTYLKX
modifications: N-terminal acetyl (Ac); fluorobenzoyl (FB) on the side chain of the C-terminal lysine
notes: N-acetylated variant of ST1-62
B7: FB-…(Ac)-PEG28 (peptide)
peptide: XGDLTYLKXX
modifications: N-terminal fluorobenzoyl (FB); acetyl (Ac) on the side chain of the C-terminal lysine; PEG28 attached to the C-terminal lysine
notes: N-fluorobenzoylated, C-PEGylated variant of ST1-62
B8: FB-…(FB)-PEG28 (peptide)
peptide: XGDLTYLKXX
modifications: N-terminal fluorobenzoyl (FB); fluorobenzoyl (FB) on the side chain of the C-terminal lysine; PEG28 attached to the C-terminal lysine
notes: also called ST1-92

How the values were obtained:
[1] = molecular target: T1, αvβ6 integrin (purified) (UniProt P06756 31-992; P18564 22-707); test: ELISA, αvβ6 integrin
T1 construct: Purified integrin captured on plate by anti-αv antibody P2W7; also called purified integrin
T1 sequence (P06756 31-992, chain 1 of 2): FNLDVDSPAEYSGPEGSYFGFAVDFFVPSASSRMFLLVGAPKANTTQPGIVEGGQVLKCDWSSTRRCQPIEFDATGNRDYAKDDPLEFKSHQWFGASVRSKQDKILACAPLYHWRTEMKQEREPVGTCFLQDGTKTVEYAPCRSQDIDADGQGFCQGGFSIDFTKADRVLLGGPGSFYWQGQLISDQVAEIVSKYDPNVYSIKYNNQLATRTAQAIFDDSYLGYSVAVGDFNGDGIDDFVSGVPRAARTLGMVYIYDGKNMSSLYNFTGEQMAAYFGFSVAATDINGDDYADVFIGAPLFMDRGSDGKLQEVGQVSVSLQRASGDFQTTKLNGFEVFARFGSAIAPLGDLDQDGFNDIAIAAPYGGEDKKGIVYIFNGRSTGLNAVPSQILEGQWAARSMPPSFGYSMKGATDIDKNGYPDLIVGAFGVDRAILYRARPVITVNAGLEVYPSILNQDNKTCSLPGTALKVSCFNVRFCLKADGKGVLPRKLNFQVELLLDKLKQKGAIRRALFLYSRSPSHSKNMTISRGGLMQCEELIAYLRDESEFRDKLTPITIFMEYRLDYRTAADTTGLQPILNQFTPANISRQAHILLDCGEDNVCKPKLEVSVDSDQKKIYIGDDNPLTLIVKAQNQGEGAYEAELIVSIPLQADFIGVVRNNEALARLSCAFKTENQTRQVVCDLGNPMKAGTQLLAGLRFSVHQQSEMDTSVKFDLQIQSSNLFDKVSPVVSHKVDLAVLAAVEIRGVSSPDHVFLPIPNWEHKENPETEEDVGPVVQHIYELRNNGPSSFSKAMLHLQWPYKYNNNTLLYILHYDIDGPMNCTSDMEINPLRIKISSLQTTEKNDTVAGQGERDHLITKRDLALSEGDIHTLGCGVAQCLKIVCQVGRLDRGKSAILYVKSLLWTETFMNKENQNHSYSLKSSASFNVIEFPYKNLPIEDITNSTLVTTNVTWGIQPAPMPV
T1 sequence (P18564 22-707, chain 2 of 2): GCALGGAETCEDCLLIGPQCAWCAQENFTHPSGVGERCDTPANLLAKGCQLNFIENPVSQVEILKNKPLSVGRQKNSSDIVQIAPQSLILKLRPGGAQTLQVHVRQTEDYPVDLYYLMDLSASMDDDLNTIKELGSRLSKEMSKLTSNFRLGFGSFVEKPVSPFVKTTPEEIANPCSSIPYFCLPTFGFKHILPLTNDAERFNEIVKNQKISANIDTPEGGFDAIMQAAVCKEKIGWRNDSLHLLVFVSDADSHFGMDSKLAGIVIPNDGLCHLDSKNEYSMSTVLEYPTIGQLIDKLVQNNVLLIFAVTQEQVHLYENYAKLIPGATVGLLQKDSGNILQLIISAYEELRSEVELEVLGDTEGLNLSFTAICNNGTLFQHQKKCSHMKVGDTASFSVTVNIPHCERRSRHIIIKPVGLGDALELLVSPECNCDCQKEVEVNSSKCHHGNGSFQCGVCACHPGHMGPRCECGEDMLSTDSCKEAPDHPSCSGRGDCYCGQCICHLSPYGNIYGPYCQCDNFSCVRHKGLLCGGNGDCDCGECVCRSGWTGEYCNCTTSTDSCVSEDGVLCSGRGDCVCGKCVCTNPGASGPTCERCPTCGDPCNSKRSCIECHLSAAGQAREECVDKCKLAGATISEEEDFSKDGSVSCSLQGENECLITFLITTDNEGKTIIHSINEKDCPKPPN

[2] = molecular target: T1, αvβ6 integrin (purified); test: competitive binding ELISA, purified integrin; competitor biotinylated natural ligand
Description: (§1) Anti-αᵥ capture antibody P2W7 (5 μg/mL, Novus Biologicals) was coated onto Nunc MaxiSorp 96-well plates, followed by blocking with BSA overnight at 4° C. All wells were washed 3 times with PBS, followed by plating of purified integrin (3 μg/mL) and incubating at room temperature in a humid chamber for 1 hour. Peptide solutions, titrated (1 μM-1 pM for integrin and 100 μM-100 pM for αᵥβ₃ integrin) and mixed with biotinylated natural ligand, were added to the integrin-coated wells in triplicate. After incubating for an hour at room temperature, the plate was washed 3 times with wash buffer. Captured biotinylated natural ligand was detected with ExtrAvidin-HRP and developed with TMB substrate. Half-maximal inhibitory concentration (IC₅₀) of peptides was determined fitting to sigmoidal dose-response model in GraphPad Prism 6.0 (FIG. 5A). Results are shown in FIG. 5B and below in Table 2.

[3] = molecular target: αvβ1 integrin (purified) (UniProt P06756 31-992; P05556 21-728); test: as above
Chain of αvβ1 integrin (purified) (P06756 31-992, chain 1 of 2): as the sequence (P06756 31-992, chain 1 of 2) above
Chain of αvβ1 integrin (purified) (P05556 21-728, chain 2 of 2): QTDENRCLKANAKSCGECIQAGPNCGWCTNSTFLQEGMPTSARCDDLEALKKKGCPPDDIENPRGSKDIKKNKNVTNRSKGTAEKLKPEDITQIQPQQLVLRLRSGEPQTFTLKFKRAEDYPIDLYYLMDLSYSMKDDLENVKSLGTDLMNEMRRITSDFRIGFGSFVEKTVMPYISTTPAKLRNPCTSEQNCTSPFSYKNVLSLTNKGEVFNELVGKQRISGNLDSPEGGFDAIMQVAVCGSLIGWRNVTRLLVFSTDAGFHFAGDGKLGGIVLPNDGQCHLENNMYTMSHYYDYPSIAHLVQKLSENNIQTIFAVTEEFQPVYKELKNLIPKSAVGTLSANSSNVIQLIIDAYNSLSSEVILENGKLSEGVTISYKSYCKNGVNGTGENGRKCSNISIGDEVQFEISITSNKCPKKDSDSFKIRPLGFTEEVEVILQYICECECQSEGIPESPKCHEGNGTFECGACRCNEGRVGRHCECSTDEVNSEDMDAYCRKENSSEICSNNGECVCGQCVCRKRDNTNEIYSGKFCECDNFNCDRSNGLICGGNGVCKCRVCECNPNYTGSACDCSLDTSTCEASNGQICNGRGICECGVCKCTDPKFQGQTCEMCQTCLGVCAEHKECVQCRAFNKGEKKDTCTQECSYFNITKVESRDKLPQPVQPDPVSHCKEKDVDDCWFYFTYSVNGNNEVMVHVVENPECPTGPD
Description: as §1

[4] = molecular target: αvβ3 integrin (purified) (UniProt P06756 31-992; P05106 27-718); test: as above
Chain of αvβ3 integrin (purified) (P06756 31-992, chain 1 of 2): as the sequence (P06756 31-992, chain 1 of 2) above
Chain of αvβ3 integrin (purified) (P05106 27-718, chain 2 of 2): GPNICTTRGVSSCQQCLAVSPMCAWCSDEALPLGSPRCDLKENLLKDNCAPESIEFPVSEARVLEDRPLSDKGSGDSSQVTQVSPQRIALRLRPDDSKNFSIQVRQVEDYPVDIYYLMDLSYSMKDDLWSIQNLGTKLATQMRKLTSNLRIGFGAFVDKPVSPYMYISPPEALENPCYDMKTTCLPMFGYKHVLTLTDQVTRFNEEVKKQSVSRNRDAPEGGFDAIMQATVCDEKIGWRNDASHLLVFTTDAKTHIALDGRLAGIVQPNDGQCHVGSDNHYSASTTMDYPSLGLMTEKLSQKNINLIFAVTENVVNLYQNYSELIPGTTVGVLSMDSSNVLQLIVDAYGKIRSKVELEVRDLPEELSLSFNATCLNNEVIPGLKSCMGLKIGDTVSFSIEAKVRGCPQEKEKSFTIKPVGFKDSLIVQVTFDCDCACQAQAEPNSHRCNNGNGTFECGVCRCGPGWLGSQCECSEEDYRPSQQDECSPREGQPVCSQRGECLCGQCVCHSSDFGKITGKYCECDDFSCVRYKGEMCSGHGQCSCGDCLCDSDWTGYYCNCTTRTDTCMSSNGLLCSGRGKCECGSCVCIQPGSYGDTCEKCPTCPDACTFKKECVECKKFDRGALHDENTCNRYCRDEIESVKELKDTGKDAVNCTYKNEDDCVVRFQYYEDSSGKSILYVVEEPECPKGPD
Description: as §1

[5] = molecular target: αvβ8 integrin (purified) (UniProt P06756 31-992; P26012 43-684); test: as above
Chain of αvβ8 integrin (purified) (P06756 31-992, chain 1 of 2): as the sequence (P06756 31-992, chain 1 of 2) above
Chain of αvβ8 integrin (purified) (P26012 43-684, chain 2 of 2): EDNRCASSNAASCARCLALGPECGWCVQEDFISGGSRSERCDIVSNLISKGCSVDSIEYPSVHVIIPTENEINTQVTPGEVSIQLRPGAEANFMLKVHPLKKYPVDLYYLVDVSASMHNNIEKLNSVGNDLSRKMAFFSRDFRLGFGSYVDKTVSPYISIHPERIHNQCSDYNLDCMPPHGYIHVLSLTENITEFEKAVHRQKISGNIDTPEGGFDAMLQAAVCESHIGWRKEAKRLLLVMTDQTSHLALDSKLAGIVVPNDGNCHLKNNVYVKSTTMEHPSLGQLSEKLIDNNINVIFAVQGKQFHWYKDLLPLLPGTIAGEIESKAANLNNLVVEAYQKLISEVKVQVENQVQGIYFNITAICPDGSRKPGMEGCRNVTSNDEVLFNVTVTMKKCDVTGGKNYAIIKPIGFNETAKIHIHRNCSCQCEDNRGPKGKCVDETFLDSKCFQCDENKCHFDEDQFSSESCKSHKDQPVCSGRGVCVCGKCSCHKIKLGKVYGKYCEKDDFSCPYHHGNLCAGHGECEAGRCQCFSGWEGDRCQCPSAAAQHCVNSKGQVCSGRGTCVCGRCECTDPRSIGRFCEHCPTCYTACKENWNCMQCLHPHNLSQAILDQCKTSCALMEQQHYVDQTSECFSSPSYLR
Description: as §1

Binder	IC50 [1]	IC50 [2]	IC50 [3]	IC50 [4]	IC50 [5]
B1	500 nM	–	–	–	–
B2	21.9 nM	–	–	–	–
B3	–	1.1 nM	2300 nM	300 nM	2600 nM
B4	–	2.7 nM	900 nM	2200 nM	2590 nM
H-RGDLADLRK(Benzoyl(4-F))-NH2 (free N-terminus; also called Peptide 3) [ST1-60, …(FB)]	–	4.7 nM	600 nM	500 nM	160 nM
B5	4.3 nM	–	–	–	–
B6	1600 nM	–	–	–	–
H-VGDLTYLKK(4‑fluorobenzoyl)-NH2 (free N-terminus; also called Peptide 1) [ST1-62, …(FB)]	–	11 nM	–	–	5300 nM
B7	15.5 nM	–	–	–	–
B8	17.6 nM	–	–	–	–
